pIC50, pKd: −log10 of the molar value.
Legend:
[1] = target: human CD64 receptor expressed by Jurkat cells (Jurkat-CD64) (human) (UniProt P12314); assay: cell-based or functional assay
[2] = target: Fc receptors on the surface of the effector cells; assay: cell-based or functional assay
[3] = target: human CD32aR receptor on transfected HEK cells (HEK-CD32) (human) (UniProt P12318); assay: flow cytometry competition on HEK-CD32 cells, displacement of Rituxan-A488 (30 µg/ml)
[4] = target: human CD32aH receptor on transfected HEK cells (HEK-CD32) (human) (UniProt P12318); assay: as above
Chain of human CD32aH receptor on transfected HEK cells (HEK-CD32) (human) (P12318 34-317): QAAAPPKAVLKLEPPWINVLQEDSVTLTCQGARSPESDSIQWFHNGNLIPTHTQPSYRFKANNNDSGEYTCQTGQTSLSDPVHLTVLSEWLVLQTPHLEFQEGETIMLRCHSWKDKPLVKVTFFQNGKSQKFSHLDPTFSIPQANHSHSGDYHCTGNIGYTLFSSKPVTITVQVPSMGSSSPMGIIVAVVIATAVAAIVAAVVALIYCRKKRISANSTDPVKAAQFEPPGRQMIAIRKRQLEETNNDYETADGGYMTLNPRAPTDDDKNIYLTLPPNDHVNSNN

[5] = target: HisTag hCD16aV receptor (R&D System) (human) (UniProt P08637); assay: BLI (Octet), HisTag hCD16aV on anti-Penta-HIS biosensors, 1/1 model; SD 103.9
Chain of HisTag hCD16aV receptor (R&D System) (human) (P08637 17-208 F176V limits assumed): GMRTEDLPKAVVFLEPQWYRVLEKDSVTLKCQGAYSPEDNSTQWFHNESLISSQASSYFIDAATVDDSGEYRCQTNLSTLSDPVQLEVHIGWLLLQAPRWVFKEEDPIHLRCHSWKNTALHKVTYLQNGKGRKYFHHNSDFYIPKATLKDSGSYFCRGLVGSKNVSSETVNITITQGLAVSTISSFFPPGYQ

CD32b = CD32b (UniProt P31994); assay: competition assay, protocol and competitor for CD32b not described
Chain of CD32b (P31994 43-310 limits assumed): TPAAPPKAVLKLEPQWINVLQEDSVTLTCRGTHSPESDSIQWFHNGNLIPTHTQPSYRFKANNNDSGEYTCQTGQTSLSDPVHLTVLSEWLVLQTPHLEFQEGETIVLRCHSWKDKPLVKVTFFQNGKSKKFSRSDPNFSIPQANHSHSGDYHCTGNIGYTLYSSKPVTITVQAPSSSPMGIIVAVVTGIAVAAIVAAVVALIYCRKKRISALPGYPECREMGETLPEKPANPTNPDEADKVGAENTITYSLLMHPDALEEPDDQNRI

[6] = target: human CD64 receptor expressed by Jurkat cells (Jurkat-CD64) (human) (UniProt P12314); assay: flow cytometry competition on Jurkat-CD64 cells, displacement of Rituxan-A488 (25 µg/ml)
[7] = target: human FcRn receptor expressed by Jurkat cells (Jurkat-FcRn) (human) (UniProt P55899); assay: flow cytometry competition on Jurkat-FcRn cells, displacement of Rituxan-A488 (25 µg/ml), pH 6
[8] = target: biotinylated human FcRn receptor (hFcRn), immobilized on Streptavidin Biosensors (human) (UniProt P55899); assay: BLI (Octet), biotinylated hFcRn on streptavidin biosensors, pH 6, 1/1 model; SD 1.94
[9] = target: HisTag hCD32aH receptor (PX therapeutics) (human) (UniProt P12318); assay: BLI (Octet), HisTag hCD32aH on anti-Penta-HIS biosensors, 1/1 model; SD 114.3
Chain of HisTag hCD32aH receptor (PX therapeutics) (human) (P12318 34-217 limits assumed): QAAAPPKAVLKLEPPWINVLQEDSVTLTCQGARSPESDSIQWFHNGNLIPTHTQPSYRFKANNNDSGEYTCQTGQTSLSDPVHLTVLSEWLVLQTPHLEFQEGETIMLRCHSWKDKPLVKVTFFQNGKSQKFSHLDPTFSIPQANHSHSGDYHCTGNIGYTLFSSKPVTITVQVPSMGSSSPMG

[10] = target: human CD16aH receptor on transfected Jurkat cells (Jurkat-CD16aH) (human) (UniProt P08637); assay: flow cytometry competition on Jurkat-CD16aH cells, displacement of mAb 3G8-PE (0.5 µg/ml)
Chain of human CD16aH receptor on transfected Jurkat cells (Jurkat-CD16aH) (human) (P08637 17-254): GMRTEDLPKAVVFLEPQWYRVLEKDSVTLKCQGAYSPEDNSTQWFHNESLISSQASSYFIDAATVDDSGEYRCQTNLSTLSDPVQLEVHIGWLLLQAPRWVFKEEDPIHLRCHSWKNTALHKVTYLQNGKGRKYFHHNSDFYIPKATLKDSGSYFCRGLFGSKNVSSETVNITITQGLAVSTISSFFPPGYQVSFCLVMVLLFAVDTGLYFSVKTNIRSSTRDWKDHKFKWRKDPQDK

[11] = target: HisTag hCD16aV receptor (R&D System) (human) (UniProt P08637); assay: BLI (Octet), HisTag hCD16aV on anti-Penta-HIS biosensors, 1/1 model; SD 4.0

Chain of human CD64 receptor expressed by Jurkat cells (Jurkat-CD64) (human) (P12314 16-374): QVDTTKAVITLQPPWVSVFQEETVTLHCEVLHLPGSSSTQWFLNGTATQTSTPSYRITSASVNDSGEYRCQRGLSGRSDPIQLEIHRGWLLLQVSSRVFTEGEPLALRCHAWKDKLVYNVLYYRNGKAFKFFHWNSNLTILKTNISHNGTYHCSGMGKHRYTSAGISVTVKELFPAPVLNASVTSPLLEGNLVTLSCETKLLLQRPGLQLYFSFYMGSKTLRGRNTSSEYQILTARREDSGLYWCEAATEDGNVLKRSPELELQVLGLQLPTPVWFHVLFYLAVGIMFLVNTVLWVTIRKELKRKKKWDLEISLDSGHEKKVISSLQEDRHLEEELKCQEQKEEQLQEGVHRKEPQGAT
Chain of human CD32aR receptor on transfected HEK cells (HEK-CD32) (human) (P12318 34-317 H167R limits assumed): as the sequence (P12318 34-317) above, with H134R counted along it

Row | Inhibition of the secretion of IL-2 of the Jurkat cells transfected with CD64 (IC 25%, nM) [1] | Inhibition of the secretion of IL-2 of the Jurkat cells transfected with CD64 (IC 50%, nM) [1] | Inhibition of the lysis of the red blood cells medited by the anti-D AD1 (IC 25%, nM) [2] | Inhibition of the lysis of the red blood cells medited by the anti-D AD1 (IC 50%, nM) [2] | pIC50 [3] | pIC50 [4] | pKd [5] | pIC50 (CD32b) | pIC50 [6] | pIC50 [7] | pKd [8] | pKd [9] | pIC50 [10] | pKd [11] | Substance
1 | 1110 nM | < 1950 nM | 59.6 nM | 351 nM | 5.88 | 6.17 | 6.47 | 6.12 | 6.06 | 5.87 | 7.46 | 6.36 | 5.77 | 6.18 | IVIg (intravenous immunoglobulin, polyvalent immunoglobulins from pools of human plasma donations) (antibody)
2 | – | – | 190 nM | 441 nM | – | – | – | – | – | – | – | – | – | – | Fc MST-HN fragment containing the mutations M252Y/S254T/T256E/H433K/N434F, produced in HEK-293 cells (from UniProt P01857 104-330)
3 | – | – | 13.5 nM | 97 nM | – | – | – | – | – | – | – | – | – | – | A3A-184AY_CHO (K334N/P352S/A378V/V397M/N434Y), Fc variant produced in CHO cells (from UniProt P0DOX5 223-449)
4 | – | – | 7.6 nM | 56 nM | – | – | – | – | – | – | – | – | – | – | A3A-184EY_CHO (Y296W/K334N/P352S/A378V/V397M/N434Y), Fc variant produced in CHO cells (from UniProt P0DOX5 223-449)

Source: patent US20210214434A1
